First the molecules themselves.
B1: B2-mHvKv-canIgGB (antibody, V domains shown)
VH: EVKLVESGGGLVQPGGSMKLSCAASGFTFSDAWMDWVRQSPERGLEWVAEIRSRAESHATYYAESVKGRFTISRDDSKGSVYLQMNSLGTEDTGIYYCTPASTMITTGWFAYWGQGTMVTVSS
VL: NIVMTQSPAILSVTPGDRVSLSCRASQNISVYLHWYQQKSHDSPRVLIKYVSQSISGIPSRFSGSGSGSDFTLRINSVEPEDVGVYYCQNGHSFPYTFGGGTKLEIKR
B2: B2-H1K1-canIgGB (antibody, V domains shown)
VH: EVQLVESGGDLVKPGGSLRLSCVASGFTFSDAWMDWVRQAPGKGLQWLAEIRSRAESHATYYAESVKGRFTISRDDAKNTVYLQMNSLRAEDTAVYYCTPASTMITTGWFAYWGQGTLVTVSS
VL: EIVMTQTPLSLAVTPGELATISCRASQNISVYLHWYLQKPGQTPRVLIKYVSQSISGVSDRFSGSGSGSDFTLKISRVEAEDVGVYYCQNGHSFPYTFGQGTKLEIKR
B3: B2-H2K3-canIgGB (antibody, V domains shown)
VH: B2 VH with Q46E, L48V, T80M
VL: B2 VL with A12S, T14S, L37Q, T43A, R45K, S59P, D60S, K74T, R77S
B4: B2-H3K2-canIgGB (antibody, V domains shown)
VH: B2 VH with L48V
VL: DIVMTQTPLSLSVSPGETASISCRASQNISVYLHWYRQKPGQSPQVLIKYVSQSISGVPDRFSGSGSGSDFTLRISRVEADDTGVYYCQNGHSFPYTFGQGTKLEIKR
B5: B2-H2K2-canIgGB (antibody, V domains shown)
VH: B2 VH with Q46E, L48V, T80M
VL: B4 VL
B6: B2-H2K1-canIgGB (antibody, V domains shown)
VH: B2 VH with Q46E, L48V, T80M
VL: B2 VL
B7: B2-H1K2-canIgGB (antibody, V domains shown)
VH: B2 VH
VL: B4 VL
B8: B2-H3K1-canIgGB (antibody, V domains shown)
VH: B2 VH with L48V
VL: B2 VL
B9: B2-H1K3-canIgGB (antibody, V domains shown)
VH: B2 VH
VL: B2 VL with A12S, T14S, L37Q, T43A, R45K, S59P, D60S, K74T, R77S
B10: B2-H3K3-canIgGB (antibody, V domains shown)
VH: B2 VH with L48V
VL: B2 VL with A12S, T14S, L37Q, T43A, R45K, S59P, D60S, K74T, R77S
B11: 7475-H3K3-canIgGB (antibody, V domains shown)
VH: EVQLVESGGDLVKPGGSLRLSCVASGFTFSSYAMSWVRQAPGKGLQWVARISNGGDYIFYADTVKGRFTISRDNAKNTLYLQMNSLRAEDTAMYYCTRRGHYNTSSYWYFDVWGQGTLVTVSS
VL: EIVMTQSPASLSLSQEEKVTITCKASENVGTYVSWYQQKPGQAPKLLIYGASNRYTGVPSRFSGSGSGTDFSFTISSLEPEDVAVYYCGQSYSYPPTFGAGTKVELKR
B12: 6465-H2K1-canIgGB (antibody, V domains shown)
VH: EVQLVESGGDLVKPGGSLRLSCVASGYSFTNYYLYWVRQAPGKGLQWLGELNPRNGGTNLNAKFKTRFTISVDKAKNTAYLQMNSLRAEDTAVYYCTRGGTTVVVRDVMDFWGQGTLVTVSS
VL: EIVLTQTPLSLAVTPGELATISCRASESVDSYGNSFMHWYLQKPGQTPRLLIYRASNLESGVSDRFSGSGSRTDFTLKISRVEAEDVGVYYCQQSNEDPYTFGQGTKLEIKR
B13: 6465-H2K3-canIgGB (antibody, V domains shown)
VH: B12 VH
VL: DIVMTQTPLSLSVSPGEPASISCRASESVDSYGNSFMHWYRQKPGQSPQLLIYRASNLESGVPDRFSGSGSGTDFTLRISRVEADDAGVYYCQQSNEDPYTFGQGTKLEIKR
B14: 6465-H3K2-canIgGB (antibody, V domains shown)
VH: B12 VH with Q46E, L48V, G49A, V72R, K74N, T78M
VL: B13 VL with M4L, G72R
B15: 6465-H3K1-canIgGB (antibody, V domains shown)
VH: B12 VH with Q46E, L48V, G49A, V72R, K74N, T78M
VL: B12 VL
B16: 6465-H1K2-canIgGB (antibody, V domains shown)
VH: B12 VH with Q46E, L48V, T78M
VL: B13 VL with M4L, G72R
B17: 6465-H1K3-canIgGB (antibody, V domains shown)
VH: B12 VH with Q46E, L48V, T78M
VL: B13 VL
B18: 6465-H2K2-canIgGB (antibody, V domains shown)
VH: B12 VH
VL: B13 VL with M4L, G72R

Positions count from the first letter of the chain named.

One test deals with His-tagged canine IL-31 (interleukin 31) recombinant protein (canine). In words: BLI (Gator), biotinylated antibody on streptavidin probe, canine IL-31 as analyte.
On to B1, for which the dissociation constant (Kd) (in general, the constant that tells how readily two partners part at equilibrium) turned out to be 3.04 nM; the koff (in general, the rate constant with which the complex falls apart) is 0.000243 s⁻¹; the kon (usually a measure of how fast the partners come together) turned out to be 79900 M⁻¹ s⁻¹.
For the molecule B2, the Kd was determined as 17.2 nM, the dissociation rate constant (koff) was found to be 0.0013 s⁻¹ and the kon stood at 75600 M⁻¹ s⁻¹.
As for B3, the Kd was found to be 1.53 nM, the off-rate (koff) amounted to 0.000143 s⁻¹ and the kon stood at 93500 M⁻¹ s⁻¹.
On to B4, for which the dissociation constant (Kd) is 1.76 nM, the koff is 0.000188 s⁻¹ and the association rate constant (kon) was 107000 M⁻¹ s⁻¹.
B5: the equilibrium dissociation constant (Kd) was determined as 9.17 nM, the off-rate constant (koff) was 0.000882 s⁻¹ and the kon was found to be 96200 M⁻¹ s⁻¹.
For B6, the Kd is 10 nM, the koff came to 0.000942 s⁻¹ and the association rate constant (kon) was 93800 M⁻¹ s⁻¹.
For B7, the Kd is 13.8 nM, the off-rate constant (koff) is 0.00115 s⁻¹ and the on-rate constant (kon) is 82800 M⁻¹ s⁻¹.
For B8, the Kd worked out at 10.2 nM, the dissociation rate constant (koff) came out at 0.00114 s⁻¹ and the on-rate constant (kon) was 112000 M⁻¹ s⁻¹.
As for B9, the Kd was determined as 16.7 nM, the koff was 0.0015 s⁻¹ and the kon amounted to 89800 M⁻¹ s⁻¹.
As for B10, the Kd stood at 3.16 nM, the koff stood at 0.000381 s⁻¹ and the kon stood at 121000 M⁻¹ s⁻¹.
In the case of B11, the Kd worked out at 3.34 nM, the koff came out at 0.00204 s⁻¹ and the association rate constant (kon) came to 611000 M⁻¹ s⁻¹.
On to B12, for which the Kd was determined as 3.37 nM, the koff amounted to 0.00171 s⁻¹ and the kon turned out to be 508000 M⁻¹ s⁻¹.
On to B13, for which the Kd was 4.99 nM, the koff was determined as 0.001 s⁻¹ and the kon is 201000 M⁻¹ s⁻¹.
Regarding B14, the equilibrium dissociation constant (Kd) amounted to 6.95 nM, the dissociation rate constant (koff) was determined as 0.00361 s⁻¹ and the kon came out at 519000 M⁻¹ s⁻¹.
The corresponding values for B15 are 5.75 nM, 0.00121 s⁻¹ and 211000 M⁻¹ s⁻¹.
Turning to B16, the equilibrium dissociation constant (Kd) was found to be 6.54 nM, the koff stood at 0.00088 s⁻¹ and the association rate constant (kon) was 135000 M⁻¹ s⁻¹.
Consider B17, for which the Kd amounted to 2.5 nM, the dissociation rate constant (koff) worked out at 0.00145 s⁻¹ and the kon was 579000 M⁻¹ s⁻¹.
Regarding B18, the Kd turned out to be 17.8 nM, the dissociation rate constant (koff) was 0.00166 s⁻¹ and the kon stood at 93200 M⁻¹ s⁻¹.

Another test shares this target. In words: cell-based or functional assay.
As for B1, the pSTAT IC50 (µg/mL) came to 6.8 µg/mL.
B2: the pSTAT IC50 (µg/mL) is 9.4 µg/mL.
For B3, the pSTAT IC50 (µg/mL) came out at 7.1 µg/mL.
Same read-out and setting: the figure for B4 is 7.2 µg/mL.
For B5, the pSTAT IC50 (µg/mL) was 7.8 µg/mL.
B6: the pSTAT IC50 (µg/mL) was determined as 8.3 µg/mL.
Same read-out and setting: the result for B7 reads 9.2 µg/mL; that for B8, 8.5 µg/mL.
In the case of B9, the pSTAT IC50 (µg/mL) is 9.3 µg/mL.
As to B10, the pSTAT IC50 (µg/mL) was found to be 7.4 µg/mL.
On the same count and under the same terms, the figure for B11 is 6.9 µg/mL; for B12 it is 7.3 µg/mL; for B13 it is 7.6 µg/mL.
For B14, the pSTAT IC50 (µg/mL) came out at 8.2 µg/mL.
On the same count and under the same terms, the result for B15 reads 7.8 µg/mL; that for B16, 7.9 µg/mL; that for B17, 7.4 µg/mL.
Take B18: the pSTAT IC50 (µg/mL) was determined as 7.3 µg/mL.

These data come from patent EP4745156A1.
